According to PMC4720517, “Structural basis for activation, assembly and membrane binding of ESCRT-III Snf7 filaments” (eLife, 2015):
Positions count from the first letter of the chain named. Names and notes keep the numbering of the source.

T1: full-length Snf7^(R52E E95K E102K E109K) (Saccharomyces cerevisiae, UniProt P39929 1-240, R52E | E95K | E102K | E109K)
T1 construct: Snf7 (Vps32), S. cerevisiae, full length, charge inversion on α2/3; source: E. coli BL21 or C41, purified (TALON, Superdex-200)
T1 sequence (looked up): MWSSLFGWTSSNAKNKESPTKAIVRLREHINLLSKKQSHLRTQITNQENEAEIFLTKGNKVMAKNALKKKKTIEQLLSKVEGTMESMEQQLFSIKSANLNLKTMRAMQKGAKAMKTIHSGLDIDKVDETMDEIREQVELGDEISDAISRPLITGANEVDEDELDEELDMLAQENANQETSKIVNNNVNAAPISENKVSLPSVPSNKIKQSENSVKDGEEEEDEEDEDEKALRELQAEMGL

B1: full-length Snf7^(R52E E88C H118C), MTSL-labeled (natural protein, Saccharomyces cerevisiae, UniProt P39929 1-240, looked up)
chain: T1 sequence (looked up) with E88C, K95E, K102E, K109E, H118C
modifications: MTSL nitroxide spin label on cysteines 88 and 118
notes: Snf7 (Vps32), S. cerevisiae, full length; also called double-labeled Snf7^(R52E E88C H118C); source: E. coli BL21 or C41, purified (TALON, Superdex-200)
B2: full-length Snf7^(R52E T20C), MTSL-labeled (natural protein, Saccharomyces cerevisiae, UniProt P39929 1-240, looked up)
chain: T1 sequence (looked up) with T20C, K95E, K102E, K109E
modifications: MTSL nitroxide spin label on cysteine 20
notes: Snf7 (Vps32), S. cerevisiae, full length; source: E. coli BL21 or C41, purified (TALON, Superdex-200)
B3: full-length Snf7^(R52E K60C A66C), MTSL-labeled (natural protein, Saccharomyces cerevisiae, UniProt P39929 1-240, looked up)
chain: T1 sequence (looked up) with K60C, A66C, K95E, K102E, K109E
modifications: MTSL nitroxide spin label on cysteines 60 and 66
notes: Snf7 (Vps32), S. cerevisiae, full length; also called double-labeled Snf7^(R52E K60C A66C); source: E. coli BL21 or C41, purified (TALON, Superdex-200)
B4: full-length Snf7^(R52E G140C), MTSL-labeled (natural protein, Saccharomyces cerevisiae, UniProt P39929 1-240, looked up)
chain: T1 sequence (looked up) with K95E, K102E, K109E, G140C
modifications: MTSL nitroxide spin label on cysteine 140
notes: as for B2
B5: full-length Snf7^(R52E E88C), MTSL-labeled (natural protein, Saccharomyces cerevisiae, UniProt P39929 1-240, looked up)
chain: T1 sequence (looked up) with E88C, K95E, K102E, K109E
modifications: MTSL nitroxide spin label on cysteine 88
notes: as for B2
B6: full-length Snf7^(R52E R25E H29E K36E) (natural protein, Saccharomyces cerevisiae, UniProt P39929 1-240, looked up)
chain: T1 sequence (looked up) with R25E, H29E, K36E, K95E, K102E, K109E
notes: Snf7 (Vps32), S. cerevisiae, full length, charge inversion on α1; source: E. coli BL21 or C41, purified (TALON, Superdex-200)
B7: full-length Snf7^(R52E H118C), MTSL-labeled (natural protein, Saccharomyces cerevisiae, UniProt P39929 1-240, looked up)
chain: T1 sequence (looked up) with K95E, K102E, K109E, H118C
modifications: MTSL nitroxide spin label on cysteine 118
notes: as for B2
B8: full-length Snf7^(R52E K60C), MTSL-labeled (natural protein, Saccharomyces cerevisiae, UniProt P39929 1-240, looked up)
chain: T1 sequence (looked up) with K60C, K95E, K102E, K109E
modifications: MTSL nitroxide spin label on cysteine 60
notes: as for B2
B9: full-length Snf7^(R52E K35C), MTSL-labeled (natural protein, Saccharomyces cerevisiae, UniProt P39929 1-240, looked up)
chain: T1 sequence (looked up) with K35C, K95E, K102E, K109E
modifications: MTSL nitroxide spin label on cysteine 35
notes: as for B2
B10: full-length Snf7^R52E (natural protein, Saccharomyces cerevisiae, UniProt P39929 1-240, looked up)
chain: T1 sequence (looked up) with K95E, K102E, K109E
notes: purification as in Henne et al., 2012; also called unlabeled Snf7^R52E; source: E. coli BL21 or C41, purified (TALON, Superdex-200)
B11: Snf7^core (Saccharomyces cerevisiae Snf7 residues 12-150) (domain or fragment, UniProt P39929 12-150, looked up)
chain: NAKNKESPTKAIVRLREHINLLSKKQSHLRTQITNQENEARIFLTKGNKVMAKNALKKKKTIEQLLSKVEGTMESMEQQLFSIESANLNLETMRAMQEGAKAMKTIHSGLDIDKVDETMDEIREQVELGDEISDAISRP
notes: Snf7 (Vps32), S. cerevisiae, core domain, residues 12-150; One molecule in the asymmetric unit; the protofilament is built by the crystal lattice; also called Snf7 core domain; open conformation A; source: E. coli Rosetta, purified (TALON, Superdex-200); not shown: His6-Sumo, N-terminal, cleaved

Columns and labels:
[1] = molecular target: the molecule itself; assay: negative stain TEM; recombinant Snf7 proteins, protofilament formation seen by negative stain transmission electron microscopy; as in Henne et al., 2012
[2] = molecular target: T1, full-length Snf7^(R52E E95K E102K E109K); assay: as above; conditions: both partners purified
[3] = molecular target: B1; assay: DEER (pulsed dipolar ESR spectroscopy); MTSL-labeled full-length Snf7 proteins (10-30 μM), alone or diluted with unlabeled Snf7^R52E, incubated with DOPC/DOPS/PI(3)P liposomes at room temperature for 15 min, pelleted by ultracentrifugation; 150 mM NaCl, 20 mM HEPES pD7.4; DEER at 60 K; conditions: both partners purified
[4] = molecular target: B3; assay: as above; conditions: both partners purified
[5] = molecular target: the molecule itself; assay: crystal structure; Snf7^core crystals, conformation A (2.4 Å) and B (1.6 Å), space group P2_1, one molecule in the asymmetric unit; protofilaments formed in the crystal lattice; grown at pH 5.5 (MES:NaOH, NaCl, PEG20,000), 4 °C

Binder	binding result [1]	further results
B1	binds	–
B2	binds	–
B3	binds	–
B4	binds	–
B5	binds	–
B6	–	binding result [2]: binds
B7	binds	–
B8	binds	–
B9	binds	–
B10	binds	binding result [3]: binds; binding result [4]: binds
B11	–	binding result [5]: binds
